Experimental data published in patent publication US20250289897A1 (Eli Lilly, published 2025).
Residue numbers refer to the chain shown, from its start.

Columns and labels:
[1] = target: neonatal Fc receptor (FcRn) on FcRn Affinity Column Gen2 (Roche, Cat #09430857001) (UniProt P55899 24-297; P61769 21-119, limits assumed); assay: FcRn-HPLC (Roche FcRn Affinity Column Gen2), peak width at 50% peak height
Procedure: Stock antibody solutions were diluted to 1 mg/mL into 20 mM MES, 140 mM NaCl, pH5.5. […] 20 μμL antibody injections were made followed by 10 minute column wash with 20 mM MES, 140 mM NaCl, pH5.5. Antibodies were then eluted by pH gradient elution into 20 mM Tris, 140 mM NaCl, pH8.8 over 90 minutes. Chromatograms were blank-subtracted to remove baseline drift.

CYNO LEPR-ECD-His [2] = target: T1, CYNO LEPR-ECD-His (cynomolgus monkey, UniProt Q9MYL0 22-837 (rhesus entry)); assay: SPR (Biacore T200), antibody captured on Protein A/G chip, His-tagged LEPR-ECD as analyte, 1:1 fit; mean n=4, SD 1.7E-8
T1 construct: also called cynomolgus monkey LEPR
T1 sequence: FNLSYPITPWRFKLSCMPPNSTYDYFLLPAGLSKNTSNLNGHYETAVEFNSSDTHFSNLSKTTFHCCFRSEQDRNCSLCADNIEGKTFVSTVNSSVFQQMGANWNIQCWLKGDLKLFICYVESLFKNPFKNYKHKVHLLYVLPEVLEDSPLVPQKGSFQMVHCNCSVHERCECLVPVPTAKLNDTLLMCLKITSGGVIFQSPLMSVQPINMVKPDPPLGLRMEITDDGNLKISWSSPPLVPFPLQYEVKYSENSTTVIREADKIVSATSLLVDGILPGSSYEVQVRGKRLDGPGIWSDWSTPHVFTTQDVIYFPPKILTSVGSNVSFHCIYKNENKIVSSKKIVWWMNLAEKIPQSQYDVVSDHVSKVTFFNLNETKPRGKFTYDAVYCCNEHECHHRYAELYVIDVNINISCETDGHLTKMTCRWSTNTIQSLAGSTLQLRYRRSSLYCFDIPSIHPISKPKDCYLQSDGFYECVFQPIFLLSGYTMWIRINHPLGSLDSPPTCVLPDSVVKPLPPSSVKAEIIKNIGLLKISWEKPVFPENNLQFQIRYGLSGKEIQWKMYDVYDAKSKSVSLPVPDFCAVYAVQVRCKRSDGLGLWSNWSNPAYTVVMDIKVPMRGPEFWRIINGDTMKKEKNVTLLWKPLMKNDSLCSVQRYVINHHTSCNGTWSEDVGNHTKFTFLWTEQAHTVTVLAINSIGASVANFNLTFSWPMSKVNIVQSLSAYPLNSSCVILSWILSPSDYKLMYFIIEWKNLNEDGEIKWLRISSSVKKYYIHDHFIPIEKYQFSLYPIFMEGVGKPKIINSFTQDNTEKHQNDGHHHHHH
Procedure: (§1) His-tagged ECDs were expressed and purified for each species and used for affinity analysis. A Protein A/G chip (Xantec, Cat #PAGHC200M) was utilized in this experiment with HBS-EP +0.01% BSA as running buffer. Antibodies were diluted to 1 μg/mL in running buffer and captured to a single flow cell on the chip surface. Each species of LEPR-ECD was diluted to 1000 nM in running buffer followed by 2-fold serial dilution. Each ligand concentration was injected over all flow cells at 100 L/min for 150 seconds followed by a 600 second dissociation phase. Regeneration was performed by injecting 10 mM glycine pH1.5 for 30 seconds at 10 μL/min. Data were analyzed in Biacore T200 Evaluation Software 3.1 by flow-cell 1 reference subtraction along with 0 nM blank subtraction. Data were fit globally using a “1:1 Binding” binding model to determine the on-rate (kₐ) and off-rate (kd) for each ligand. The affinity (KD) was calculated from the binding kinetics according to the relationship KD=kₐ/kd. Data reported as mean±standard deviation of experimental replicates.

CYNO LEPR-ECD-His [3] = target: T1, CYNO LEPR-ECD-His; assay: SPR (Biacore T200), antibody captured on Protein A/G chip, His-tagged LEPR-ECD as analyte, 1:1 fit; mean n=4, SD 2.6E-8
Procedure: as §1

[4] = target: T2, human LEPR, full length, on HEK293-STAT3Luc-hLepR1 cells (Homo sapiens, UniProt P48357 22-1165); assay: flow cytometry on live HEK293-STAT3Luc-hLepR1 cells, AF647 anti-human IgG; average of 4 runs, SD 1.0
T2 construct: also called human LEPR on live cell surface
T2 sequence: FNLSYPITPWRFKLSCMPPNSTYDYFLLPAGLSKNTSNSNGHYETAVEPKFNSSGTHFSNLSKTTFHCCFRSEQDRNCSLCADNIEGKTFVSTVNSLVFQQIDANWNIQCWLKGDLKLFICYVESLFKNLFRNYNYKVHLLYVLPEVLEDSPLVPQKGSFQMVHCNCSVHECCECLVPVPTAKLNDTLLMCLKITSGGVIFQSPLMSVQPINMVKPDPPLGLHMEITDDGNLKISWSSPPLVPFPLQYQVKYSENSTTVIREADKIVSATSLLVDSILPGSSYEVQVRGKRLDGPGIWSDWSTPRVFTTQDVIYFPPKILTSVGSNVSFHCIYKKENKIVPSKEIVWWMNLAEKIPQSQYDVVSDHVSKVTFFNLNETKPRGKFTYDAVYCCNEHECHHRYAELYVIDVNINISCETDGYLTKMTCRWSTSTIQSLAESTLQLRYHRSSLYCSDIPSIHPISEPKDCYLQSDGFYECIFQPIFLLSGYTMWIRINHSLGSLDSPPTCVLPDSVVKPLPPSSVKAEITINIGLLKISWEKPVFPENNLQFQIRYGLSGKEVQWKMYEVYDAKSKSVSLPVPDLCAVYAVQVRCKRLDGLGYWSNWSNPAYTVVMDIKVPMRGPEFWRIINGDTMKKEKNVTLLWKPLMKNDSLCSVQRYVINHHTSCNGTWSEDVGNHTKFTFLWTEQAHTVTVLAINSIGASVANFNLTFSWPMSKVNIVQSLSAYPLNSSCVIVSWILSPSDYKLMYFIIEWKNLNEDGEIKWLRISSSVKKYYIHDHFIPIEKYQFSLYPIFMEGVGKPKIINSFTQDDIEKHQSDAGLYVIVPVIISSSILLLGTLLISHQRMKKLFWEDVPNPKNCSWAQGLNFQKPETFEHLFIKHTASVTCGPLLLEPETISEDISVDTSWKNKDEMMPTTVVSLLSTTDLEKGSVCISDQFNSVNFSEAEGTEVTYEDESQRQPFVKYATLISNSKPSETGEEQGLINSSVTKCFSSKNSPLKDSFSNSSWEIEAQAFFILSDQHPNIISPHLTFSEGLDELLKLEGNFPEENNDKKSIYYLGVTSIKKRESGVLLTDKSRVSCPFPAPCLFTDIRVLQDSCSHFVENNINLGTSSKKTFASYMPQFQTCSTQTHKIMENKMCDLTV
Procedure: Cells were incubated in blocking buffer for 10 mins at room temperature. After one rinse with PBS, cells were transferred to U-bottom 96-well plate at 200 μL and 0.2˜0.26^e6 cells/well. […] Cells were then incubated with 30 μL/well of antibodies diluted in flow buffer at 1000 nM as high dose followed by 9-point dose response including 5-fold dilutions not including 0 (totaling 9 concentrations for each Antibody) for 30 minutes at 4° C. in dark.

Chain of neonatal Fc receptor (FcRn) on FcRn Affinity Column Gen2 (Roche, Cat #09430857001) (P55899 24-297 limits assumed, chain 1 of 2): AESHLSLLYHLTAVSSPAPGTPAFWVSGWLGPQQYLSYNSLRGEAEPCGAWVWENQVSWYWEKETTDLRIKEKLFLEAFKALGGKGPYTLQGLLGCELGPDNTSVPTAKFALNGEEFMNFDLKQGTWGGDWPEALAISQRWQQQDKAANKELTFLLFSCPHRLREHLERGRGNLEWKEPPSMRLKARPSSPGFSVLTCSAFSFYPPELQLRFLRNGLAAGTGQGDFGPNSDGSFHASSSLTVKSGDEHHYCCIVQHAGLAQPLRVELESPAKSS
Chain of neonatal Fc receptor (FcRn) on FcRn Affinity Column Gen2 (Roche, Cat #09430857001) (P61769 21-119 limits assumed, chain 2 of 2): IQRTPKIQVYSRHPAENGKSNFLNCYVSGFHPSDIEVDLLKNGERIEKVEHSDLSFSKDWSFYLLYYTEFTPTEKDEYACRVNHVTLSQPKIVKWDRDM

B1: Antibody A (antibody, human IgG1, kappa, L234A L235A)
heavy: EVQLLESGGGLVQPGGSLRLSCAASGFTFSSFAMSWVRQAPGKGLEWVSAISGSGGSTYSADSVRGRFTISRDNSKNTLYLQMNSLRAEDTAVYYCAKDQGDWDFLFDYWGQGTLVTVSSASTKGPSVFPLAPSSKSTSGGTAALGCLVKDYFPEPVTVSWNSGALTSGVHTFPAVLQSSGLYSLSSVVTVPSSSLGTQTYICNVNHKPSNTKVDKRVEPKSCDKTHTCPPCPAPEAAGGPSVFLFPPKPKDTLYITREPEVTCVVVSVSHEDPEVKFNWYVDGVEVHNAKTKPREEQYNSTYRVVSVLTVLHQDWLNGKEYKCKVSNKALPAPIEKTISKAKGQPREPQVYTLPPSREEMTKNQVSLTCLVKGFYPSDIAVEWESNGQPENNYKTTPPVLDSDGSFFLYSKLTVDKSRWQQGNVFSCSVMHEALHNHYTQKSLSLSPGK
light: DIQMTQSPSFLSASVGDRVTITCRASQGISSSLAWYQQKPGKAPKLLIYTASTLQSGVPSRFSGSGSGTEFTLTISSLQPEDFATYYCQQLIYYPFTFGQGTKVEIKRTVAAPSVFIFPPSDEQLKSGTASVVCLLNNFYPREAKVQWKVDNALQSGNSQESVTEQDSKDSTYSLSSTLTLSKADYEKHKVYACEVTHQGLSSPVTKSFNRGEC
notes: IgG1 mAb
[1]
  Peak Width: 2.7 min

B2: Antibody B (antibody, human IgG1, kappa, L234A L235A, V domains shown)
VH: EVQLLESGGGLVQPGGSLRLSCAASGFTFSSFAMSWVRQAPGKGLEWVSAISGSGGSTYSADSVRGRFTISRDNSKNTLYLQMNSLRAEDTAVYYCAKDQGDWDFLFDYWGQGTLVTVSS
VL: DIQMTQSPSFLSASVGDRVTITCRVSQGISSSLAWYQQKPGKAPKLLIYTASTLQSGVPSRFSGSGSGTEFTLTISSLQPEDFATYYCQQLNYYPFTFGQGTKVEIKR
CYNO LEPR-ECD-His [2]
  Kd: 32 nM

B3: Antibody C (antibody, human IgG1, kappa, L234A L235A, V domains shown)
VH: B2 VH
VL: B2 VL with V25A, T97S
CYNO LEPR-ECD-His [3]
  Kd: 47 nM
[4]
  EC50: 1.33 nM
